Reference: patent US20220119521A1 (Pfizer, published 2022)
Positions count from the first letter of the chain named.

B1: anti-MAdCAM monoclonal antibody 6.34.2 (antibody, human IgG4, kappa, V domains shown)
VH: QVQLVESGGGVVQPGRSLRLSCAASGFTFSSYGMHWVRQAPGKGLEWVAVISNDGNNKYYADSVKGRFTISRDNSKNTLYLQMNSLSAEDTAVYYCARDSTAITYYYYGMDVWGQGTTVTVSS
VL: DIQMTQSPSSLSASVGDRVTITCRASQNISSYLNWFQQKPGKAPKLLIYAASGLKRGVPSRFSGSGSGTDFTLTIRTLQPDDFATYSCHQSYSLPFTFGPGTKVDIKR
B2: anti-MAdCAM monoclonal antibody 6.14.2 (antibody, human IgG4, kappa, V domains shown)
VH: EVQLLESGGGLVQPGGSLRLSCAASGLTFNNSAMTWVRQAPGKGLEWVSTTSGSGGTTYYADSVKGRFTISRDSPKNTLYLQMNSLRAEDTAVYYCAARGYSYGTTPYEYWGQGTLVTVSS
VL: DIQMTQSPSSLSASVGDRVTITCRASRSISSYLNWYQQKPGKAPKVLIFFVSSLQSGVPSRFSGSGSGTDFTLTISSLQPEDFATYYCQQNYIPPITFGQGTRLEIRR
B3: anti-MAdCAM monoclonal antibody 7.20.5 (antibody, human IgG2, kappa, V domains shown)
VH: QVQLQESGPGLVKPSETLSLTCTVSGSSISSYHWNWIRQPAGKGLEWIGRIYTSGSTNYNPSLKSRVTMSLDTSKNQFSLKLSSVTAADTAVYYCAREGVRYYYASGSYYYGLDVWGQGTTVTVSS
VL: not shown
B4: anti-MAdCAM monoclonal antibody 9.8.2 (antibody, human IgG4, kappa, V domains shown)
VH: QVQLVESGGGVVQPGRSLRLSCAASGFTFSSYGMHWVRQAPGKGLEWVAVIWYDGSNEYYADSVKGRFTISRDNSKNTLYLQMNSLRAEDTAVYYCARGAYHFAYWGQGTLVTVSS
VL: DIQMTQSPSSLSASVGDRVTITCQASQDISNYLNWYQQKPGKAPKLLIYDASNLETGVPSRFSGSGSGTDFTFTISSLQPEDIATYSCQHSDNLSITFGQGTRLEIKR
B5: anti-MAdCAM monoclonal antibody 6.22.2 (antibody, human IgG4, kappa, V domains shown)
VH: QVQLVESGGGVVQPGRSLRLSCAASGHTFSSDGMHWVRQAPGKGLEWVAIIWYDGSNKYYADSVKGRFTISRDNSKNTLYLQMNSLRAEDTAVYYCARDPGYYYGMDVWGQGTTVTVSS
VL: EIVLTQSPDFQSVTPKEKVTITCRASQRIGSSLHWYQQKPDQSPKLLIKYASQSFSGVPSRFSGSGSGTNFTLTINGLEAEDAATYYCHQSGRLPLTFGGGTKVEIKR
B6: anti-MAdCAM monoclonal antibody 7.26.4 (antibody, human IgG2, kappa, V domains shown)
VH: QVQLVQSGAEVKKPGASVKVSCEASGYTFTSYGIDWVRQAPGQGLEWMGWISVYSGNTNYAQKLQGRVTMSTDTSTSTAYMELRSLRSDDTAVYYCAREGSSSSGDYYYGMDVWGQGTTVTVSS
VL: DIVMTQTPLSLSVTPGQPASISCKSNQSLLYSDGKTYLFWYLQKPGQPPQLLIYEVSNRFSGVPDRFSGSGSGTDFTLKISRVEAEDVGVYYCMQSIQLPWTFGQGTKVEIKR
B7: anti-MAdCAM monoclonal antibody 6.77.1 (antibody, human IgG4, kappa, V domains shown)
VH: EVQLVESGGGLVKPGGSLRLSCAASGFTFSSYSMNWVRQAPGKGLEWVSSISSSSSYIYYADSVKGRFTISRDNAKNSLYLQMNSLRAEDTAVYYCARDGYSSGWSYYYYYGMDVWGQGTTVTVSS
VL: B6 VL with K24N, N26S, Y31L, F39N, Y92S, P100M, W101C, T102S, V109L
B8: anti-MAdCAM monoclonal antibody 6.67.1 (antibody, human IgG4, kappa, V domains shown)
VH: QVQLQESGPGLVKPSETLSLTCTVSGDSISSNYWSWIRQPAGKGLEWIGRIYTSGGTNSNPSLRGRVTILADTSKNQFSLKLSSVTAADTAVYYCARDRITIIRGLIPSFFDYWGQGTLVTVSS
VL: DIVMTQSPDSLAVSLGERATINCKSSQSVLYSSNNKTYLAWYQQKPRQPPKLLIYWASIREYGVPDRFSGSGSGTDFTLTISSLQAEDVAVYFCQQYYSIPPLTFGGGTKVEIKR
B9: anti-MAdCAM monoclonal antibody 1.7.2 (antibody, human IgG2, kappa, V domains shown)
VH: EVQLVESGGGLVKPGGSLRLSCVASGFTFTNAWMIWVRQAPGKGLEWVGRIKRKTDGGTTDYAAPVKGRFTISRDDSKNTLYLQMNSLKTEDTAVYYCTTGGVAEDYWGQGTLVTVSS
VL: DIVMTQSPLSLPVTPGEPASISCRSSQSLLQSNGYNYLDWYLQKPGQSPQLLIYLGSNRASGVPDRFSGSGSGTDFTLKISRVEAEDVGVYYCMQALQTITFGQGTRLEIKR
B10: anti-MAdCAM monoclonal antibody 1.8.2 (antibody, human IgG2, kappa, V domains shown)
VH: B9 VH with A24V
VL: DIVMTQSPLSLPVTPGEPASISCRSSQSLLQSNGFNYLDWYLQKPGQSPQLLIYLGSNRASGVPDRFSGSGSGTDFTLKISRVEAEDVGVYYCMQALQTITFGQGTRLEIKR

What was measured:
[1] = target: T1, chimeric cynomolgus/human MAdCAM (cynomolgus; human, UniProt Q13477 226-382, limits assumed); assay: cell-based or functional assay
T1 sequence: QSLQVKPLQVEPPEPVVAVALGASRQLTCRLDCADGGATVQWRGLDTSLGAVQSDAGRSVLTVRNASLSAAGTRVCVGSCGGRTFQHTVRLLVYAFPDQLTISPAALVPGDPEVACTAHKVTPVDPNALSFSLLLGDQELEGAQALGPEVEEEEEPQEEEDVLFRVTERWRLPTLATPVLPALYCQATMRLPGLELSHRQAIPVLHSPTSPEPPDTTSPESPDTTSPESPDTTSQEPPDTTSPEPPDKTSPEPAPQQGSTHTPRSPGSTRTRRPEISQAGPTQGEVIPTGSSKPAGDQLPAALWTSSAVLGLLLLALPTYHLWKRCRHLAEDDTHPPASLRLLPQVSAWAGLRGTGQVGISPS

[2] = target: MAdCAM-IgG1 Fc fusion protein (human); assay: cell-based or functional assay

Binder | Functional IC50 (µg/mL), cynomolgus/human MAdCAM-CHO/JY adhesion assay [1] | Mean IC50, α4β7+ JY cell adhesion to coated MAdCAM IgG1 Fc fusion [2]
B1 | 0.47 µg/mL | 
B2 | 0.53 µg/mL | 
B3 | 0.62 µg/mL | 0.025 µg/mL
B4 | 0.83 µg/mL | 
B5 | 0.83 µg/mL | 
B6 | 0.96 µg/mL | 0.021 µg/mL
B7 | 0.64 µg/mL | 
B8 | 0.75 µg/mL | 
B9 |  | 0.03 µg/mL
B10 |  | 0.027 µg/mL
